Experiment [1] concerns the target T1, human beta-dystroglycan extracellular domain (soluble) (human, UniProt Q14118 654-749).
T1 construct: extracellular domain; The expression construct of soluble human beta-DG is not described (only the mouse one); also called hBeta-DG; hbeta-DG
T1 sequence (looked up): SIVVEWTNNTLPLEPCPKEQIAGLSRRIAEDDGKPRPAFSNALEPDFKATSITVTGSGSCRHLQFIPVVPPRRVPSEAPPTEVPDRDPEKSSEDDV
Description: SPR, antibody on Protein G chip, beta-DG in flow, 1:1 model (table title says laminin-2; paragraph 445 says human beta-DG). Here is the method:
Data was evaluated with a 1:1 binding model using the BIAevaluation software.
SPR was used as described above to analyze the kinetics of triAb binding to laminin-2 (Table N) or beta-DG (Table O).

The target in experiment [2] is T1, human beta-dystroglycan extracellular …. Description: dual binding sandwich ELISA on coated human beta-DG, read out through LG4/5-mFc (5 ug/mL). As for the experimental part:
A dual binding sandwich ELISA was performed by coating Thermo Nunc Immobilized SA 96 well plates with either 2 ug/mL of biotinylated N′Avi-HPC4-human LG4/5 or biotinylated human-beta DG-HPC4-Avi-C′. After overnight incubation at 4° C., the plates were blocked with PBS+1% BSA+0.1% Tween for 1 hour at room temperature. After washing (BioTek ELx405 Select CW) with PBS, the trivalent or parental antibodies were added to the plate started at 8 ug/mL and a 2-fold dilution was performed across the plate, antibody was incubated for 1 hour at room temperature. After washing, the second antigen of beta-DG-mFc (FIG. 1A) or LG4/5-mFc was added at 5 ug/mL. Following the second antigen, a secondary antibody of donkey anti-mouse (Jackson ImmunoResearch) at a 1:2,000 dilution was added for 30 minutes. ABTS was resuspended in ABTS buffer (Roche) and added to the wells for detection. Resulting signal was read with the Perkin Elmer EnVision Multimode Plate Reader at 405 nm.
To show binding of the triAbs to both antigens, a dual binding sandwich ELISA was performed as described above using 2 ug/mL of biotinylated N′Avi-HPC4-human LG4/5 (FIG. 14A) or biotinylated human-beta DG-HPC4-Avi-C′ (FIG. 14B).

The target is the same in experiment [3]. The experiment in a line: SPR (Biacore) kinetics; mAb immobilized, hBeta-DG in flow.
In experiment [4] the target is T2, murine beta-dystroglycan extracellular domain (mbeta-DG ECD), HPC4 tagged (mouse, UniProt Q62165 652-746).
T2 construct: range 652-746; Made in E. coli as MBP fusion; MBP cleaved off with TEV protease; also called mbeta-DG-HPC4; murine beta-DG; not shown: C-terminal HPC4 tag
T2 sequence (looked up): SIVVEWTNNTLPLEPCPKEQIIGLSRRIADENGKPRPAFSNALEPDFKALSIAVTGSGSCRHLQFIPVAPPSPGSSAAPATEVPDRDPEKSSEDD
The experiment in a line: SPR (Biacore) kinetics; mAb immobilized, mBeta-DG in flow.

The target in experiment [5] is T3, Fabrazyme (agalsidase beta, Genzyme) (UniProt P06280 32-429).
T3 construct: Negative control protein on the dot blots
T3 sequence (looked up): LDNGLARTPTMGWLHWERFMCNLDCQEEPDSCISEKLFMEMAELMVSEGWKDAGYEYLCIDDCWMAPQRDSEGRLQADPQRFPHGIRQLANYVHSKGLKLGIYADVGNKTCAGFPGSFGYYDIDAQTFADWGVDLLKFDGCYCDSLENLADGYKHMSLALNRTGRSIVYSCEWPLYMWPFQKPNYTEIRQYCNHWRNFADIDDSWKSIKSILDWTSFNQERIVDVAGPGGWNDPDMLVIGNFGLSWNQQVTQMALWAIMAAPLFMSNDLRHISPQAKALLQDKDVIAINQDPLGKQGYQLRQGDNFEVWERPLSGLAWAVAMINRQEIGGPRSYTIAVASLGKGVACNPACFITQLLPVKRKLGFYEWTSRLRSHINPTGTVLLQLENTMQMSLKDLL
The experiment in a line: dot blot: protein dotted on nitrocellulose (250 to .016 ng), probed with AS19.

Experiment [6] has as its target T2, murine beta-dystroglycan extracellular …. Description: SPR (Biacore) kinetics, antibody as ligand on the chip, sample mBDg in flow, fit 1:1 Binding.

B1: triAb 3407 (bispecific antibody)
light 1: EIVLTQSPDFLSVTPKEKVTLTCRASQSISNNLHWYQQKSDQSPKLLIKYASQSISGIPSRFSGSGSGTDFTLTINSVEAEDAATYFCQQSKSWPRTFGGGTKLEIKDKTHTEIVLTQSPDFLSVTPKEKVTLTCRASQSISNNLHWYQQKSDQSPKLLIKYASQSISGIPSRFSGSGSGTDFTLTINSVEAEDAATYFCQQSKSWPRTFGGGTKLEIKDKTHTRTVAAPSVFIFPPSDEQLKSGTASVVCLLNNFYPREAKVQWKVDNALQSGNSQESVTEQDSKDSTYSLSSTLTLSKADYEKHKVYACEVTHQGLSSPVTKSFNRGEC
heavy 1: EVQLVESGGGLVKPGGSLRLSCAASGFTFSSYTMSWVRQAPGKGLEWVASISSSGSNTYYPDSVKGRFTISRDNAKNNLYLQMNSLRAEDTALYYCARFDYGSSLDSWGQGTLLTVSSDKTHTEVQLVESGGGLVKPGGSLRLSCAASGFTFSSYTMSWVRQAPGKGLEWVASISSSGSNTYYPDSVKGRFTISRDNAKNNLYLQMNSLRAEDTALYYCARFDYGSSLDSWGQGTLLTVSSDKTHTASTKGPSVFPLAPSSKSTSGGTAALGCLVKDYFPEPVTVSWNSGALTSGVHTFPAVLQSSGLYSLSSVVTVPSSSLGTQTYICNVNHKPSNTKVDKKVEPKSCDKTHTCPPCPAPELLGGPSVFLFPPKPKDTLYITREPEVTCVVVDVSHEDPEVKFNWYVDGVEVHNAKTKPREEQYNNASRVVSVLTVLHQDWLNGKEYKCKVSNKALPAPIEKTISKAKGQPREPQVYTLPPCRDELTKNQVSLWCLVKGFYPSDIAVEWESNGQPENNYKTTPPVLDSDGSFFLYSKLTVDKSRWQQGNVFSCSVMHEALHNHYTQKSLSLSPG
heavy 2: QVQLVQSGAEVVKPGSSVKVSCEASGFTFTDSVITWVRQRPGQGLEWIGEIYPGSGNFYYNEKFQGRVTITADKSTSTAYMELSSLRSEDTAVYFCAMRRSSWGQGTLVTVSSASTKGPSVFPLAPSSKSTSGGTAALGCLVKDYFPEPVTVSWNSGALTSGVHTFPAVLQSSGLYSLSSVVTVPSSSLGTQTYICNVNHKPSNTKVDKKVEPKSCDKTHTCPPCPAPELLGGPSVFLFPPKPKDTLYITREPEVTCVVVDVSHEDPEVKFNWYVDGVEVHNAKTKPREEQYNNASRVVSVLTVLHQDWLNGKEYKCKVSNKALPAPIEKTISKAKGQPREPQVCTLPPSRDELTKNQVSLSCAVKGFYPSDIAVEWESNGQPENNYKTTPPVLDSDGSFFLVSKLTVDKSRWQQGNVFSCSVMHEALHNRFTQKSLSLSPG
light 2: DVVMTQTPLSLSVTPGQPASISCKSSQTIVHSNSKTYLEWYLQKPGQSPQLLIYKVSSRFSGVPDRFSGSGSGTDFTLKISRVEAEDVGVYYCFQGSHVPLTFGQGTKLEIKRTVAAPSVFIFPPSDEQLKSGTASVVCLLNNFYPREAKVQWKVDNALQSGNSQESVTEQDSKDSTYSLSSTLTLSKADYEKHKVYACEVTHQGLSSPVTKSFNRGEC
notes: knob-in-hole, NNAS, YTE and RF variants
Turning to B1, in experiment [1], the affinity, expressed as Kd, was 2.08 nM; the koff worked out at 0.00326 s⁻¹; the kon was found to be 1.57e+06 M⁻¹ s⁻¹. For the same molecule, in experiment [2], the “EC50 (read off the curve)” value is ~0.1 µg/mL.

B2: anti-beta-DG antibody derived from hybridoma clone AS19 (antibody, V domains shown)
VH: QVQLQQSGPELVKPGASVKMSCKASGFTFTDSVISWVKQRTGQGLEWIGEIYPGSGSIYYNEKFKGKATLTADKSSNTAYMQLRSLTSEDSAVYFCAMRRSYWGQGTLVTVSA
VL: DVLMTQTPLSLPVSLGDQASISCRSSQSIVHSNGNTYLEWYLQKPGQSPKLLIYKVSNRFSGVPDRFSGSGSGTDFTLKISRVEAEDLGVYYCFQGSHVPLTFGAGTKLELK
notes: Hybridoma monoclonal antibody (detected with anti-mouse IgG)
B2 came in with a Kd in experiment [3] of 2.06 nM. In experiment [4], this molecule displayed a Kd of 3.38 nM. In addition, the binding result in experiment [5] was “no binding (tested: 250 ng)”. In experiment [6], this molecule returned a koff of 0.000667 s⁻¹ and a kon of 110000 M⁻¹ s⁻¹.

For the origin of these results see patent publication US20180237511A1 (Sanofi, published 2018).
